Results published in patent US20230212305A1, “ANTI-ABCG2 ANTIBODIES AND USES THEREOF” (Kenjockety Biotechnology, Inc., priority 2020, published 2023).

T1: ABCG2 (Homo sapiens, UniProt Q9UNQ0)
T1 construct: expressed in transfected cells
T1 sequence (Q9UNQ0 1-655): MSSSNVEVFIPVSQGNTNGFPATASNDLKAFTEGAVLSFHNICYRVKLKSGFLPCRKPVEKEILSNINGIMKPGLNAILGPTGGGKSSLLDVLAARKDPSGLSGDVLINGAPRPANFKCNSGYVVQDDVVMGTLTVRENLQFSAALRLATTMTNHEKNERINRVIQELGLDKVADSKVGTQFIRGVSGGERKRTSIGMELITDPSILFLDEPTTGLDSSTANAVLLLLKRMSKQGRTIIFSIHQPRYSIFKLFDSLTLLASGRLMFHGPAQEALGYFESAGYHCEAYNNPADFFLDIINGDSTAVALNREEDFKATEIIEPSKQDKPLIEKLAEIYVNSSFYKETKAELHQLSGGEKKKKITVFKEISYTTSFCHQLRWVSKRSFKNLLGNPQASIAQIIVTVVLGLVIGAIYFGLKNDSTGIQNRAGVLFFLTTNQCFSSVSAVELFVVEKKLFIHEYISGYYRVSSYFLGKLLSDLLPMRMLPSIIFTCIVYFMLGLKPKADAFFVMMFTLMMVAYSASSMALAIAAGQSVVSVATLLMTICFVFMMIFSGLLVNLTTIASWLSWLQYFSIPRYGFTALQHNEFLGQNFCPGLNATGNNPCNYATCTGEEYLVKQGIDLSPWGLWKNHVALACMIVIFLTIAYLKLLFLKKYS

B1: G2.302 Humanized: humanized version of anti-ABCG2 antibody G2.302 (antibody, V domains shown)
VH: EIQLVQSGAEVKKPGASVKVSCKASGYTFTDYYINWVRQAPGQRLEWIGWIYPGNVNVKYNEKFKGRATLTVDTSASTGYMELSSLRSEDTAVYFCARSIGLRYFDNWGQGTLVTVSS
VL: EKVLTQSPATLSLSPGERATLSCRASSSVHYMYWHQQKPGQSPRLWIYYTSNLAPGVPARFSGSGSGNDYTLTISSLEPEDFAVYYCQQFTTSTWTFGGGTKLEIK
B2: G2.394 rat: anti-ABCG2 antibody raised in rat (antibody, V domains shown)
VH: EVQLKESGPGLVQPSQTLSLTCTVSGFSLTDYTITWVRQPPGKGLEWIAATSVGGATHYNSPLKSRLSISGDTSKSQVFLKMNSLRTEDTAMYFCVRSGYYSTYMNWGRGTMVTVSS
VL: DVVMTQTPPTFSATIGQSVSISCRSSQSLLHSSGNTFLSWLLQRPGQPPQLLIYLVSRLEFGVPNRFSGSGSGTDFTLKISGVEAEDLGVYYCVQSTHVMNTFGAGTKLEIK
B3: G2.636.hu47: humanized variant of the anti-ABCG2 antibody G2.636 (antibody, V domains shown)
VH: EVQLVESGGGLVQPGGSLRLSCAASGFTFSRFYMAWVRQAPGKGLEWVAHISHGGDTTYYRDSVKGRFTISRDNSKNTLYLQMNSLRAEDTAVYYCTTSAAPWNYVMDGWGQGATVTVSS
VL: DIQLTQSPSSLSASVGDRVTLTCKGSQNINNFLAWYQQKPGKAPKLLIYKTNSLHTGIPSRFSGSGSGTDYTLTISSLQPEDFATYYCYQYNNGYTFGQGTKLEIK
B4: G2.640: Anti-G2 antibody raised in rats; VH SEQ ID NO:415, VL SEQ ID NO:416 (antibody, listed as Rattus norvegicus, V domains shown)
VH: EVKLEESGPGLVQPSQTLSLTCTVSGFSLTSDGVSWVRQPPGKGLEWIAAISSGGSTYYNSALKSRLSISRDTSKSQVFLKMNSLQTEDTAIYFCTRDTYYGYNQIPFVYWGQGTLVTVSS
VL: DIVIIQSPPSLSASLGDKVTISCQASQNIHRYIAWYQQKPGKAPRLLIRYTSTLESGTPSRFSGSGSGRDYSFSISNVESEDIASYYCLQYVNLWTFGGGTKLELK
B5: G2.757: anti-ABCG2 monoclonal antibody (antibody, V domains shown)
VH: QVTLKESGPGILRPSHTLSLTCSFSGFSLTTYGICVSWIRQPSGKGLEWLANICWEDSKAYNPSLKNRLTISKDTSNNQVFLRIPSVDTADSAIYYCARVFNNYPFPYWGQGTLVTVSS
VL: TQSPPSLSASLGDKVTITCQASQNINKYVAWYQQKPGKAPRLLIRYTSTLESGTPSRFSGSGSWRDYSFSISNVESEDIADYYCLQYVNLWTFGGGTKLELK
B6: G2.247 mouse: anti-ABCG2 antibody raised in mouse (antibody, V domains shown)
VH: EVRLQQSGAELVKPGASVKLSCKTSGFTFSNSYISWLKQKPRQSLEWIAWIYAGTGGTNYNQKFTGKAQLTVDTSSSTAYMQLSSLTSEDSAIYYCATYGNFLYAMDNWGQGTSVTVSS
VL: DIVMTQSPASLSASVGETVTITCRASGNIHNYLAWYQQKQGKSPQLLVYNTKTLADGVPSRFSGSGSGTQYSLKINSLQPEDFGSYYCQHFWSTPWTFGGGTKLEIK
B7: G2.252 mouse: anti-ABCG2 antibody raised in mouse (antibody, V domains shown)
VH: EVQLQQSGAELVKPGASVKLSCKTSGFTFSNSYISWLKQKPRQSLEWIAWIYAGTGGTNYNQKFTGKAQLTVDTSSSTAYMQLSSLTSEDSAIYYCATYGNFLYAMDYWGQGTTLTVSS
VL: EIVLTQSPASLSASVGETVTITCRASGNIHNYLAWYQQKQGKSPQLLVYNAKTLADGVPSRFSGSGSGTQYSLKINSLQPEDFGSYYCQHFWSTPWTFGGGTKLEIK
B8: G2.257 mouse: anti-ABCG2 antibody raised in mouse (antibody, V domains shown)
VH: EVQLQQSGPELVKPGASLKISCKTFGYSFTGYYMHWVKQSPEKSLEWIGKIVPSTGGTTYNQKFKAKATLTVDKSSFTAYMQLKSLTTEDSAVYYCAREKVYGYDVYYFDYWGQGTTLTVSS
VL: DIQMTQTPSSLSASLGDRVTITCSTSQGVRSYLNWYQQKPDGSVKLLIYYTSSLHSGVPSRFSGSGSGTDYSLTISNLEPEDIATYYCQQYSKLPYTFGGGTKLELK
B9: G2.346 rat: anti-ABCG2 antibody raised in rat (antibody, V domains shown)
VH: SVQWKESGPGLVQPSQTLSLTCTVSGFSLTSNGVSWVRQPPGKGLEWIAAISSGGSTYYNSGLKSRLSISRDTSKSQVFLKMNSLQTEDTAIYFCTRAGYYGYNPIWFTYWGQGTLVTVSS
VL: DVVMTQTPPTLSATIGQSVSISCRSSQSLLHGSGNTYLNWLLQRPGQPPQILIYLVSRLESRVPKRFSGSGSGTDFTLKISGVEADDLGVYYCVQSTHAPFTFGSGTKLELK
B10: G2.348 rat: anti-ABCG2 antibody raised in rat (antibody, V domains shown)
VH: EVQLVESGPGLMQPSQTLSLTCTVSGFSLTSNGVSWVRQPPGKGLEWIATISSGGNTNYNSALKSRLSISRDTSKSQVFLKMNSLQTEDTAIYFCTRVGYYGYNPIWFAYWGQGTLVTVSS
VL: DVVMTQTPPTLSATIGHSVSISCRSSQSLFHSSGNTYLSWFLQRPGQPPQLLIYLVSRLESRVPNRFSGSGSGTDFTLKISVLEAEDLGVYYCVQTTHAPFTFGSGTKLEIK
B11: G2.760: anti-ABCG2 monoclonal antibody (antibody, V domains shown)
VH: EVQLVESGGGLVQPGRSMKLSCAASGFTFSKSDMAWVRQAPTKGLKWVASIRYDGGNTYYRDSVRGRFTISRDNAKSTLYLQMDSLRSEDTATYYCSTAKAAISTPSYYVLDAWGQGASVTVSS
VL: DIGMTQSPTSMSKSVGDRVTMNCKASQNVGSNVDWFQQKTGQSPKLLIYKSSNRYTGVPARFTGSGSGTDFTFTISNMQAEDLAVYYCMQSNSYPPTFGGGTKLELK
B12: G2.748: anti-ABCG2 monoclonal antibody (antibody, V domains shown)
VH: QVSLKESGPGMLQPSKTLSLTCSFSGFSLSTSGMVVNWIRQPSGKSLEWLAAIDWDGDKYYNPSLKHRLTVSKDTSNTQVVLKITSVDTADTATYYCARSIAPYRGWFGYWGQGTLVTVSS
VL: EIVLIQSPSSLPASLGERVTIICRASQDIGNNLNWYQQKPDGTIKPLIYFTSNFQSGVPSSFSGSRSGTDFSLTISSLEAEDFAMYYCQQDASLPWTFGGGTKLEIK

Assays:
ABCG2 [1] = biological target: T1, ABCG2; type: cell-based
Procedure: 293T_ABCG2_OX cells were washed several times and aliquoted into 96-well plates as 50 μl aliquots/well at a cell density of 2×10e6 cells per ml in phenol red-free DMEM. Cells were mixed with 50 μl antibodies or the small molecule inhibitors of ABCG2:-fumitremorgin C (FTC), or its tetracyclic analogue K0143, with a final concentration of 1 μM. Cells were then incubated in the presence of 2.5 μM Mitoxantrone 1 h at 37° C. The cells were subsequently washed twice and finally resuspended in […] PBS. Mitoxantrone fluorescence was measured using excitation at 635 nm and emission at 647 nm. Protocols was measuring efflux blockade are found in Szabo E, et al., PLoS One. 2018 Jan. 17; 13(1):e0190629; Deeken J F, et al., Mol Pharmacol. 2009 November; 76(5):946-56).

ABCG2 [2] = biological target: T1, ABCG2; test: Flow cytometry binding to 293T cells overexpressing human ABCG2 (293T_ABCG2_OX); parameters: key to Binding by FACS: binding=“+”; non-significant binding=“−”; conditions: for Binding by FACS: 293T_ABCG2_OX cells; for binding to 293T cells overexpressing human ABCG2: in words, FIGS. 7-11, 21
Procedure: (§1) Cell Binding Assays. Antibody binding to cells was evaluated by flow cytometry. 293T cells stably transfected to express human or cynomolgus ABCG2 (293T_ABCG2_OX) were washed once in flow cytometry buffer (PBS+2% FBS+0.02% sodium azide), resuspended at 2×10^6 cells/mL in flow cytometry buffer, and dispensed into 96-well microtiter plates at 0.1 mL/well. Recombinant antibodies were added to cells at 5 ug/mL for initial binding confirmation, or serially diluted from 100 ug/mL in flow cytometry buffer. After incubating cells on ice for 30 min, cells were washed twice with flow cytometry buffer. Bound antibody was detected with PE-labeled F(ab′)2 fragment goat anti-human IgG (Jackson ImmunoResearch) and evaluated on an Attune NxT flow cytometer. EC50 is calculated to be the concentration of antibody that gives half maximal response.

cynomolgus ABCG2 = test: Flow cytometry binding to 293T cells overexpressing cynomolgus ABCG2; parameters: key to Cynomolgus ABCG2 binding: binding=“+”; non-significant binding=“−”; conditions: for binding to 293T cells overexpressing cynomolgus ABCG2: in words, FIGS. 7-11, 21
Chain of cynomolgus ABCG2 (as listed by the source): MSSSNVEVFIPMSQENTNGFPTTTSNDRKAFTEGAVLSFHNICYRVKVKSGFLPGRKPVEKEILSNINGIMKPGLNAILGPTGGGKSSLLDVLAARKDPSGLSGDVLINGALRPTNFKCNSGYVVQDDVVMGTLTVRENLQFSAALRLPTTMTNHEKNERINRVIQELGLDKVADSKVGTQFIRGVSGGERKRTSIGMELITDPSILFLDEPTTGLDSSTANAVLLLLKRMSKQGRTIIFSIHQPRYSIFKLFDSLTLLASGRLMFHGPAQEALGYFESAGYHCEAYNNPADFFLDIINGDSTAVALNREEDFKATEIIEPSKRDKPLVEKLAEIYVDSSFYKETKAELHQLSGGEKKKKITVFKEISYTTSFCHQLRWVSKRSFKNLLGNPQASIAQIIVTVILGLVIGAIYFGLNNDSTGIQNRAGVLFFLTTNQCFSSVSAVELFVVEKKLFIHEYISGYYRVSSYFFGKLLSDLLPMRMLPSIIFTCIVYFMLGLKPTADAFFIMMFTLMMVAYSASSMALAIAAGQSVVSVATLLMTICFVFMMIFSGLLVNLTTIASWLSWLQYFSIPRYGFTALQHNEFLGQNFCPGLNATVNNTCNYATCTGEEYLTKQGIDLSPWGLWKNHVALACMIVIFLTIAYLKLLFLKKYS
Procedure: as §1

Row | Molecule | Block Efflux (ABCG2 [1]) | Binding by FACS (ABCG2 [2]) | Cynomolgus ABCG2 binding (cynomolgus ABCG2) | efflux inhibition activities and binding to human and cynomolgus ABCG2 of humanized G2.636 antibodies (ABCG2 [1]) | binding to 293T cells overexpressing human ABCG2 (ABCG2 [2]) | binding to 293T cells overexpressing cynomolgus ABCG2 (cynomolgus ABCG2)
1 | B1 | − | + | + |  |  | 
2 | B2 | − | + | + |  |  | 
3 | B3 |  |  |  | particularly good expression and activity |  | 
4 | B4 |  |  |  |  | did not show significant binding | did not show significant binding
5 | B5 |  |  |  |  | good binding affinity | good binding affinity
6 | B6 | − | + | − |  |  | 
7 | B7 | − | + | − |  |  | 
8 | B8 | − | + | + |  |  | 
9 | B9 | − | + | + |  |  | 
10 | B10 | − | + | + |  |  | 
11 | B11 |  |  |  |  | good binding affinity | good binding affinity
12 | B12 |  |  |  |  | good binding affinity | good binding affinity
